Experimental data: patent US5591427A, “Human Interleukin-3(Il-3) variants and their use to promote or antagonize IL-3-mediated processes” (Medvet Science Pty. Ltd., priority 1979, dated 1997)

Molecular target: T1, IL-3R α chain (Homo sapiens, UniProt P26951)
T1 construct: amplify the complete coding region of the IL-3R alpha chain; expressed in transfected cells; host or cells: COS cells (pCDM8 vector, electroporation)
T1 sequence (P26951 19-378): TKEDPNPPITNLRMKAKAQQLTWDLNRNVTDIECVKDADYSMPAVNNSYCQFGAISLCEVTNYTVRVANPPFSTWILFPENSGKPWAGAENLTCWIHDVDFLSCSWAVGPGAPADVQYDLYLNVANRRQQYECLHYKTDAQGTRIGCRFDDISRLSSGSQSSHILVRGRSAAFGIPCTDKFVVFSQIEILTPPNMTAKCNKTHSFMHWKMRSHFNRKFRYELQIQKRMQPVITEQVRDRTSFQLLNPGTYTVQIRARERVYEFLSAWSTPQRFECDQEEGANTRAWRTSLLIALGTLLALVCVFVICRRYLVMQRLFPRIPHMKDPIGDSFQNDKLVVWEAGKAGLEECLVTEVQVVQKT
Assay: Competition for 125I-IL-3 binding to cloned IL-3R α chain expressed in COS cell transfectants
Details: for competition for 125I-IL-3 binding to cells expressing only the α chain: FIG. 6
Text: PolyA+ RNA was isolated from the human cord blood cell line KMT2. Oligo dT primed double stranded cDNA was synthesised and used as template for PCR amplification. The PCR primers were designed to amplify the complete coding region of the IL-3R alpha chain and also to amplify the coding region of the […]. The PCR products were cloned into the vector pGEM-2 for sequence verification, and then into the eukaryotic expression vector, pCDM8. The […]-containing plasmid was transfected into COS cells by electroporation, either on its own or in conjunction with the […], and after two days the cells were used for binding studies.

- fold higher affinity than wild type IL-3 (COS cells transfected with IL-3R α chain cDNA, E. coli produced protein): 10 fold
- competition for 125I-IL-3 binding to cells expressing only the α chain: competed for binding more efficiently
B1: M37: human IL-3 mutant, Asp 101 replaced by Ala and Lys 116 by Val (protein, UniProt P08700 20-152, looked up, variant D101A K116V)
Interleukin-3: APMTQTTPLKTSWVNCSNMIDEIITHLKQPPLPLLDFNNLNGEDQDILMENNLRRPNLEAFNRAVKSLQNASAIESILKNLLPCLPLATAAPTRHPIHIKAGDWNEFRRKLTFYLVTLENAQAQQTTLSLAIF
- competition for 125I-IL-3 binding to cells expressing only the α chain (listed as IL-3 (Ala^101, Val^116)): more potent at competing for binding than wild-type IL-3
